From paper PMC10207099, “Nitrogen Fixation and Hydrogen Evolution by Sterically Encumbered Mo-Nitrogenase” (JACS Au, 2023) come the findings set out here.

For experiment [1], the target named is Strep-inhibited α-C45A/L158C MoFe protein (Azotobacter vinelandii) (UniProt P07328). Nature of the experiment: SEC; analytical gel filtration of MoFe protein pre-treated with 5 molar equivalents of L127Δ Fe protein. On the technique in general: SEC sorts molecules by how far they enter the pores of the column.
The target of experiment [2] is T1, NifK (ß subunit) of the MoFe protein (Azotobacter vinelandii, UniProt P07329 1-523).
T1 construct: Nitrogenase molybdenum-iron protein beta chain (NifK, ß subunit), Azotobacter vinelandii; The ß chain of m1 and m2, written alone; also called ß-subunit/NifK; source: A. vinelandii strain M1 (derivative of RS1), purified as part of the MoFe protein (HisTrap HP, Q-Sepharose)
T1 sequence: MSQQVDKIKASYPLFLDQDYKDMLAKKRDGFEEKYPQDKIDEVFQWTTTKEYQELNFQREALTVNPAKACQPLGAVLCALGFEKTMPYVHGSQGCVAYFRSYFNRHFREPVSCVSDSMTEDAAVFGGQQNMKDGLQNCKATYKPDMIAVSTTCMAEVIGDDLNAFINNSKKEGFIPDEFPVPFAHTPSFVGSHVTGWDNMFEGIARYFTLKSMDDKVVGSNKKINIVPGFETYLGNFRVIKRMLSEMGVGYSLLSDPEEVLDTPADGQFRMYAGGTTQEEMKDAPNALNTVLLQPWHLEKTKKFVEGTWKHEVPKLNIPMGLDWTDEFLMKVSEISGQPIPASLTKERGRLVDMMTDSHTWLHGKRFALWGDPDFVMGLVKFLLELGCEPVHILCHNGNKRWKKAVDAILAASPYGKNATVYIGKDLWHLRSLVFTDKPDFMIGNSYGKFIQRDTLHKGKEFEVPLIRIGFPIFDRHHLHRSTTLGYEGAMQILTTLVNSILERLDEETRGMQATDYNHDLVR
In words: native gel or EMSA; anoxic native-PAGE of the MoFe protein alone. The note with it: both partners purified. On the technique in general: In EMSA bound probe runs differently from free probe, usually more slowly.

For the molecule “L127Δ Fe protein (non-ATP-hydrolyzing NifH2 mutant) (enzyme)”, the percent of the broadened MoFe peak that is MoFe:Fe1 complex (multi-Gaussian peak analysis) in experiment [1] stood at 68%.

B1: NifD (α subunit) of the Strep-inhibited α-C45A/L158C MoFe protein (natural protein, Azotobacter vinelandii)
chain: GMSREEVESLIQEVLEVYPEKARKDRNKHLAVNDPAVTQSKKAIISNKKSQPGLMTIRGCAYAGSKGVVWGPIKDMIHISHGPVGCGQYSRAGRRNYYIGTTGVNAFVTMNFTSDFQEKDIVFGGDKKLAKLIDEVETLFPLNKGISVQSECPIGCIGDDIESVSKVKGAELSKTIVPVRCEGFRGVSQSLGHHIANDAVRDWVLGKRDEDTTFASTPYDVAIIGDYNIGGDAWSSRILLEEMGLRCVAQWSGDGSISEIELTPKVKLNLVHCYRSMNYISRHMEEKYGIPWMEYNFFGPTKTIESLRAIAAKFDESIQKKCEEVIAKYKPEWEAVVAKYRPRLEGKRVMLYIGGLRPRHVIGAYEDLGMEVVGTGYEFAHNDDYDRTMKEMGDSTLLYDDVTGYEFEEFVKRIKPDLIGSGIKEKFIFQKMGIPFREMHSWDYSGPYHGFDGFAIFARDMDMTLNNPCWKKLQAPWEASEGAEKVAASA
peptide: GGGWSHPQFEK
modifications: C158 joined by thiol-maleimide Michael addition to the peptide maleimide-GGGWSHPQFEK | N-terminal maleimide, joined to C158 of the α subunit
notes: Nitrogenase molybdenum-iron protein alpha chain (NifD, α subunit), Azotobacter vinelandii; The α chain of m2, written alone; in the sample only part of the α subunits carry the peptide; also called Strep-modified α subunit
B1: the binding result in experiment [2] is given as “binds”.
